Experiment [1] deals with Hebeloma cylindrosporum Jps1 (HcJps1) (Hebeloma cylindrosporum). As to the kind of experiment: SEC-MALS.
The target in experiment [2] is Sporisorium reilianum Jps1 (SrJps1) (Sporisorium reilianum). As to the kind of experiment: mass photometry.
Experiment [3] has the same target. The experiment is described as follows: SEC-MALS.
In experiment [4] the target is Ustilago maydis Jps1 lacking the unstructured C-terminus (Jps1^1-484) (Ustilago maydis). The experiment is described as follows: SEC-MALS. On the technique in general: Size exclusion chromatography separates by hydrodynamic size, large species first.
For experiment [5] the target is unchanged. The experiment is described as follows: SAXS.
Experiment [6] addresses Ustilago maydis Jps1, full length (Jps1^1-609) (Ustilago maydis). As to the kind of experiment: mass photometry.
Experiment [7] has the same target. The experiment is described as follows: SEC-MALS.
Experiment [8] deals with Ustilago maydis Jps1^1-484 M^5 (alanine replacements of the basic cluster R162, R163, R164) (Ustilago maydis). As to the kind of experiment: SEC-MALS.

Consider five substances from publication doi:10.1101/2024.02.29.582524.

As usually defined, the stoichiometry N is a count of units in the complex or per binding partner. Turning to “Hebeloma cylindrosporum Jps1 (HcJps1) (natural protein)”, the stoichiometry N in experiment [1] was 2.
On to “Sporisorium reilianum Jps1 (SrJps1) (natural protein)”, for which the stoichiometry N in experiment [2] and in experiment [3] was 2 in each case.
As to “Ustilago maydis Jps1 lacking the unstructured C-terminus (Jps1^1-484) (domain or fragment)”, the stoichiometry N in experiment [4] and in experiment [5] was 2 in each case.
Regarding “Ustilago maydis Jps1, full length (Jps1^1-609) (natural protein)”, in experiment [6], the percent of particles in the dimer fraction (125 kDa) worked out at 69%, the percent of particles in the monomer fraction (64 kDa) turned out to be 9% and the stoichiometry N is 2. Further, in experiment [7], the stoichiometry N stood at 2.
In experiment [8], “Ustilago maydis Jps1^1-484 M^5 (alanine replacements of the basic cluster R162, R163, R164) (domain or fragment)” gave a stoichiometry N of 2.
